Assay results taken from paper PMC10881398, “O-glycosylation of the transcription factor SPATULA promotes style development in Arabidopsis” (Nature Plants, 2024).

T1: HEC1–RFP (35S::HEC1–RFP) (Arabidopsis thaliana, UniProt Q9FHA7 1-241)
T1 construct: HECATE 1 (HEC1), bHLH transcription factor, Arabidopsis thaliana; the cloning of this construct is not described; the methods describe the FRET–FLIM constructs of SPT and IND only; also called HECATE 1; source: N. benthamiana leaves, Agrobacterium-infiltrated, in nuclei of leaf cells
T1 sequence (looked up): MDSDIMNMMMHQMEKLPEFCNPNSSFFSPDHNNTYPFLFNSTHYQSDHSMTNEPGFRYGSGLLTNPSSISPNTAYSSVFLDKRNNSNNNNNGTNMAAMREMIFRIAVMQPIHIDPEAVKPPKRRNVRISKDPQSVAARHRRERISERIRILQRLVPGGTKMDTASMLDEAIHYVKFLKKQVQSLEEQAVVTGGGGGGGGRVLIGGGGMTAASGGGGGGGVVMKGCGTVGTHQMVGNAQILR

T2: IND–RFP (35S::IND–RFP) (Arabidopsis thaliana, UniProt O81313 1-198)
T2 construct: INDEHISCENT (IND), bHLH transcription factor, Arabidopsis thaliana; also called INDEHISCENT; source: N. benthamiana leaves, Agrobacterium-infiltrated, in nuclei of leaf cells
T2 sequence (looked up): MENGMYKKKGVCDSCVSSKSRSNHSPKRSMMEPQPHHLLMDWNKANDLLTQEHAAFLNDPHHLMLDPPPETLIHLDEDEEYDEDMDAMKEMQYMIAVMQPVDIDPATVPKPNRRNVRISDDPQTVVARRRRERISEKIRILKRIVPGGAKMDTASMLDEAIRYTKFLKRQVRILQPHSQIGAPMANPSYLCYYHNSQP

T3: 6xHis-SPT (SPATULA) (Arabidopsis thaliana, UniProt Q9FUA4 1-373)
T3 sequence: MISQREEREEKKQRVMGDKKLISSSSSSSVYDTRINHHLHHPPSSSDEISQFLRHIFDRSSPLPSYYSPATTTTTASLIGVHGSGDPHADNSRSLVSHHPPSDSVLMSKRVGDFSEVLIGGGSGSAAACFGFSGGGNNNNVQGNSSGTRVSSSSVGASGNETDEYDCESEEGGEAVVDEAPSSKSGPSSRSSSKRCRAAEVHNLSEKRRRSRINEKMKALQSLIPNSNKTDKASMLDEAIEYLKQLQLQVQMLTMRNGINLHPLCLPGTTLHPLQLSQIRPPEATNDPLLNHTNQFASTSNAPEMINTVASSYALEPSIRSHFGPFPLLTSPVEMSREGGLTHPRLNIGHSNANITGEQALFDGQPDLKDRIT

B1: SPT–GFP (35S::SPT::GFP) (natural protein, Arabidopsis thaliana, UniProt Q9FUA4 1-373, looked up)
chain: MISQREEREEKKQRVMGDKKLISSSSSSSVYDTRINHHLHHPPSSSDEISQFLRHIFDRSSPLPSYYSPATTTTTASLIGVHGSGDPHADNSRSLVSHHPPSDSVLMSKRVGDFSEVLIGGGSGSAAACFGFSGGGNNNNVQGNSSGTRVSSSSVGASGNETDEYDCESEEGGEAVVDEAPSSKSGPSSRSSSKRCRAAEVHNLSEKRRRSRINEKMKALQSLIPNSNKTDKASMLDEAIEYLKQLQLQVQMLTMRNGINLHPLCLPGTTLHPLQLSQIRPPEATNDPLLNHTNQFASTSNAPEMINTVASSYALEPSIRSHFGPFPLLTSPVEMSREGGLTHPRLNIGHSNANITGEQALFDGQPDLKDRIT
notes: SPATULA (SPT), Arabidopsis thaliana; in the self-association row the second copy carried RFP in place of EGFP (35S::SPT–RFP); also called SPT–EGFP; SPT–RFP (the second copy in the homodimer test); source: N. benthamiana leaves, Agrobacterium-infiltrated, in nuclei of leaf cells
B2: 171-bp pPID G-box mutant (CACGTG to TGATGA) (dsDNA)
DNA 1: GCACCCCTATAATATGCCTAGAGGAAATAAGAAGAAAAAATAATGGGGAAAAAGAGAAGCTACTGCTACACTTTCAGGTGATGAACAACGTCTCATGATGATCATATATCTTACGTCATCAAGTCCTCTTTTTCTCTCTTTCACTTTTCTGTTTACCTCTCTCACGCGTTG
DNA 2: CAACGCGTGAGAGAGGTAAACAGAAAAGTGAAAGAGAGAAAAAGAGGACTTGATGACGTAAGATATATGATCATCATGAGACGTTGTTCATCACCTGAAAGTGTAGCAGTAGCTTCTCTTTTTCCCCATTATTTTTTCTTCTTATTTCCTCTAGGCATATTATAGGGGTGC

Assays:
HEC1–RFP (35S::HEC1–RFP) = target: T1, HEC1–RFP (35S::HEC1–RFP); test: FRET or BRET; FRET–FLIM in nuclei of co-infiltrated N. benthamiana leaves; donor SPT–EGFP, acceptor RFP fusions; efficiency E = 1 − τDA/τD with SPT–EGFP;RFP–NLS as the donor-only reference; with or without co-expressed SEC–3xHA or SPY–3xHA; conditions: partners not purified
IND–RFP (35S::IND–RFP) = target: T2, IND–RFP (35S::IND–RFP); test: as above; conditions: partners not purified
[1] = target: the molecule itself; test: as above
6xHis-SPT (SPATULA) = target: T3, 6xHis-SPT (SPATULA); test: EMSA; legend: binding abolished; text: strongly abolished; EMSA: 150 ng DNA, '1x' buffer as printed 250 mM Tris-HCl pH 8.0, 500 mM NaCl, 25% glycerol, 10 mM DTT; on ice 20 min; 5% native acrylamide gel, 1x TBE, EB stain; conditions: protein: recombinant; tags: 6xHis N-terminal (pRSFDuet); chain copies: 2; label: none (EB stain); blunt

| Binder | FRET efficiency (HEC1–RFP (35S::HEC1–RFP)) [%] | FRET efficiency (IND–RFP (35S::IND–RFP)) [%] | FRET efficiency [1] [%] | binding result (6xHis-SPT (SPATULA)) |
| --- | --- | --- | --- | --- |
| B1 | 7.4 | 9.6 | 5.7 |  |
| B2 |  |  |  | no binding |
